B1: Bcl-2-like protein 11 (Mus musculus), O54918-1 (parent)
chain: MAKQPSDVSSECDREGGQLQPAERPPQLRPGAPTSLQTEPQGNPDGEGDRCPHGSPQGPLAPPASPGPFATRSPLFIFVRRSSLLSRSSSGYFSFDTDRSPAPMSCDKSTQTPSPPCQAFNHYLSAMASIRQSQEEPEDLRPEIRIAQELRRIGDEFNETYTRRVFANDYREAEDHPQMVILQLLRFIFRLVWRRH
B2: Bcl-2-like protein 11 (Mus musculus), O54918-1 (parent)
chain: B1 chain
partner: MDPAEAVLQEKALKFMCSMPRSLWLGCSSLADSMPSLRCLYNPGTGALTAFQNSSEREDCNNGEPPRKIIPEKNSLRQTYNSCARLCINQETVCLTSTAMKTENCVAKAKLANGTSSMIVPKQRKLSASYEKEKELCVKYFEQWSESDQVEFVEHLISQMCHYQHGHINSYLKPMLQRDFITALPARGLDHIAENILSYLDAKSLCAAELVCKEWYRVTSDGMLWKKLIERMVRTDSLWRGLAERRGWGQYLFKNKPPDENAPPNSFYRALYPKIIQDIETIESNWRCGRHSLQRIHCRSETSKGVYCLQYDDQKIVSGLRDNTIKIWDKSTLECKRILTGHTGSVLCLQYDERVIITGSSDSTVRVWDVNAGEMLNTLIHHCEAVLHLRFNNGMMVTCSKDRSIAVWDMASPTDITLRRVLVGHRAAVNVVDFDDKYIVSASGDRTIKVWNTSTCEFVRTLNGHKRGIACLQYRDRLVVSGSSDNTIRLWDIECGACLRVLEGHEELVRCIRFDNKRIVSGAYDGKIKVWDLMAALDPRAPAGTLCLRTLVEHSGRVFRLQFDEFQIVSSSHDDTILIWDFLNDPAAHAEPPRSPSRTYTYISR

Variants of: B1
Conditions: with kapca_human PRKACA

Row | effect of a mutation on the interaction | Variant
1 | disrupting interaction | S83A

Variants of: B2
Conditions: with fbw1a_mouse Btrc

Row | effect of a mutation on the interaction | Variant
2 | increasing interaction | S83A
